Results published in patent US20210030857A1 (NGM BIOPHARMACEUTICALS, published 2021).

T1: human beta klotho expressed on cells (human, UniProt Q86Z14 1-1044)
T1 construct: also called HuKLB overexpressing cells; Human KLB
T1 sequence: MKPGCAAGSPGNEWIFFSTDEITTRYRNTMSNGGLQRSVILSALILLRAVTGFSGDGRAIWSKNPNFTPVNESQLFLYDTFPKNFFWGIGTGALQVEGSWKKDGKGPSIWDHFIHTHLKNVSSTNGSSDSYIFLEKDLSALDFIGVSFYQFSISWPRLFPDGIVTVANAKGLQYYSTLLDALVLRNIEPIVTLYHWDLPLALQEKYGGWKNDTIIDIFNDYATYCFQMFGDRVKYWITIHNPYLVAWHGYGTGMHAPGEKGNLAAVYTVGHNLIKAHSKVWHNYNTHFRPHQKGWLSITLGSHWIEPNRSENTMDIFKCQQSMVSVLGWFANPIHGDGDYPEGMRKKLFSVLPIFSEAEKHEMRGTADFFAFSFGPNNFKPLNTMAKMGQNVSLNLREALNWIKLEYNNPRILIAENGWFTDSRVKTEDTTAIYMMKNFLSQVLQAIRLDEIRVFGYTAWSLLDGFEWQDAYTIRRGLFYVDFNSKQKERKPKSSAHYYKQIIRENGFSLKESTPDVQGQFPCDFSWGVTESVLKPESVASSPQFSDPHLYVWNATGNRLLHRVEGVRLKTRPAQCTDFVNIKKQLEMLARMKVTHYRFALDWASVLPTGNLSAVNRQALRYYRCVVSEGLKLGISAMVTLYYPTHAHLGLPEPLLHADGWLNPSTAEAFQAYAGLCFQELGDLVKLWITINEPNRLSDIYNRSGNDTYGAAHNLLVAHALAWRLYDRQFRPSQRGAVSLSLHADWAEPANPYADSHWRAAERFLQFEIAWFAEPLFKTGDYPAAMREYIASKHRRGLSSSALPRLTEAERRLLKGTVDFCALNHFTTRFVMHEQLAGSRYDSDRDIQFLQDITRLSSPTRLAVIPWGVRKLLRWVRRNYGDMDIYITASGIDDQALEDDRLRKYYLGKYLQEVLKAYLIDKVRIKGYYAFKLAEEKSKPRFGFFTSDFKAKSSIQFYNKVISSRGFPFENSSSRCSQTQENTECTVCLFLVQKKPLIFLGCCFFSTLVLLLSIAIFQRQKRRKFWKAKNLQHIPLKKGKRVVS

B1: antibody 5F7 (antibody, V domains shown)
VH: QVQPQESGPELVKPGALVKISCKASGYTFTRYDINWVKQRPGQGLEWIGWIYPGDISTKYNEKFKGKATLTADKSSSTAYMQLNSLTSENSAVYFCARSDYYGSRSFVYWGQGTLVTVSA
VL: DIVLTQSPASLAVSLGQRATISCRASKSVSTSGYSYMHWYQQKPGQPPKLLIYLASNLESGVPARFSGSGSGTDFTLNIHPVEEEDAATYYCQHSRELPYTFGGGTKVEIK
notes: Murine monoclonal antibody
B2: antibody 1D19 (antibody, V domains shown)
VH: QVQPQESGPELVKPGALVKISCKASGYTFTRYDINWMKQRPGQGLEWIGWIYPGDSSTKFNENFKDKATLTADKSSSTAYMQLSSLTSENSTVYFCARSDYYGSRSFTYWGQGTLVTVSA
VL: DIVLTQSPASLAVSLGQRATISCRASKSVSTSGYSYMHWYQQKPGQPPKLLIYLASNLESGVPARFSGSGSGTDFTLNIHPVEEEDAATYYCQHSRELPYTFGGGTKLEIK
notes: Murine monoclonal antibody
B3: antibody 2L12 (antibody, V domains shown)
VH: QVQLQQSGPELVKPGALVKISCKASGYTFTRYDINWVKKRPGQGLEWIGWIYPGDDSTKYNEKFKGKATLTADKSSSTAYMQLSSLTSENSAVYFCARSDYYGSRSFVYWGQGTLVTVSA
VL: DIVLTQSPASLPVSLGQRATISCRASKSVSTSGYSYLHWYQQKPGQPPKLLIYLASNLESGVPARFSGSGSGTDFTLNIHPVEEEDAATYYCQHSGELPYTFGGGTKLEIK
notes: Murine monoclonal antibody
B4: antibody 3L3 (antibody, V domains shown)
VH: QVQPQESGPELVKPGTLVKISCKASGYTFTSYDINWVKQRPGQGLEWIGWIYPGDGSPKYDEKFKGKATLTADKSSSTAYMQLSSLTSENSAVYFCARSDYYGSRSFVYWGQGTLVTVSA
VL: DIVLTQSPASLAVSLGQRATISCRASKSVSTSGYSYVHWYQQKPGQPPKLLIYLASNLESGVPARFSGRGSGTDFTLNIHPVEEEDAATYYCQHSGELPYTFGGGTKLEIK
notes: Murine monoclonal antibody
B5: antibody 4P5 (antibody, V domains shown)
VH: QVQLQQSGPELVKPGALVKISCKASGYTFTRYDINWVKKRPGQGLEWIGWIYPGDDSTKYNEKFKGKATLTADKSSSTAYMQLSSLTSENSAVYFCARSDYYGSRSFVYWGQGTLVTVSA
VL: DILLTQSPASLAVSLGQRATISCRASKSVSTSGYSYMHWYQQKPGQPPKLLIYLASNLESGVPARFSGRGSGTDFTLNIHPVEEEDAATYYCHHSGELPYTFGGGTKLEIK
notes: Murine monoclonal antibody
B6: antibody 5C23 (antibody, V domains shown)
VH: QVQPQESGPELVKPGALVKISCKASGYTFTRYDINWVKKRPGQGLEWIGWIYPGDGSTKYNEKFEGKATLTADKSSSTAYMQLSSLTSENSAVYFCARSDYYGSRSFVYWGQGTLVTVSA
VL: DIVLTQSPDSLTVSLGQRATISCRASKSVSTSGYSYMHWYQQKPGQPPKLLIYLASNLESGVPARFSGSGSGTDFTLNIHPVEEEDAATYYCQHSRELPYTFGGGTKLEIK
notes: Murine monoclonal antibody
B7: antibody 1C17 (antibody, V domains shown)
VH: QVQLQESGPGLVKPSQSLSLTCSVTGYSITSGYYWNWIRQFPGNKLEWMGYINYDGNSNYTPSLKNRISITRDTSKNQFFLKLNSVTPEDTATYYCARKGAYYSNYDSFDVWGTGTTVTVSS
VL: DIKMTQSPSSMYASLGERVTITCKASQDINSYLSWVQQKPGKSPKTLIYRANRLVDGVPSRFSGSGSGQDYSLTISSLEYEDMGIYYCLQYDEFPFTFGSGTKLEIK
notes: Murine monoclonal antibody
B8: antibody 5H23 (antibody, V domains shown)
VH: QVQLQQSGPELVKPGALVKISCKASGYTFTSYDINWVKQRPGQGLEWIGWIYPGDGSTKYNEKFKGKATLTADKSSRTAYMQLSSLTSENSAVYFCARSDYYGSRSFAYWGQGTLVTVSA
VL: DIVLTQSPASLAVSLGQRATISCRASKSVSTSGYVYMHWNQQKPGQPPKLLIYLASYLESGVPARFSGSGSGTDFTLNIHPVEEEDAAIYYCQHSRDLTFPFGGGTKLEIK
notes: Murine monoclonal antibody from hybridoma; also called 5H23-Alexa647 (labelled form)
B9: antibody 3N20 (antibody, V domains shown)
VH: QVQLQESGAELARPGASVKLSCKVSGYIFTNYGISWVKQRTGQGLEWIGEIYPRSGNTYYNEKFKGKATLTADMSSSTAYMDLRSLTSEDSAVYFCARHWDGVLDYFDYWGQGTSLTVSS
VL: DIVMTQSPSSLSVSAGEKVTMSCKSSQSLLNSGNQKNYLAWYQQKPGQPPKLLIYGASTRESGVPDRFTGSGSGTDFTLTISSVQAEDLAVYYCLNDHSYPFTFGAGTKLELK
notes: Murine monoclonal antibody

Columns and labels:
[1] = molecular target: T2, human beta klotho / human FGFR1c receptor complex on cells (human, UniProt Q86Z14 1-1044; P11362 22-822); assay: cell-based or functional assay
[2] = molecular target: T1, human beta klotho expressed on cells; assay: FACS competition on HuKLB-overexpressing cells; row antibody unlabelled; competitor 3I13-Alexa488 (labelled, EC10); MFI of the label
Experimental: (§1) For example, for competition binding assays by FACS analysis, antibody standards were prepared that were conjugated to a fluorochrome using either A488 or A647 antibody labeling kit (Invitrogen) following manufacturer's instructions. A dose titration of the conjugated antibody standard was evaluated using HuKLB overexpressing cells. The plateau of the maximal signal of antibody binding is EC=100 and the background signal is EC=0. Competition by FACS against the fluorochrome labeled antibody was performed by pre-incubating HuKLB overexpressing cells with hybridoma supernatants for 15 minutes at room temperature. Without washing, an EC=10 concentration of A488 or A647 labelled antibody standard was added. EC=10 for an individual antibody was determined by 10% of signal using the maximum signal as (100%) and background signal as (0%). After 30 minutes at 4° C., cells are washed and analyzed by FACS. […] A partial competing antibody is one sample that show signal between labelled antibody alone and background. Antibodies that show complete competition against the same standard antibody are considered to be in the same bin.
(§2) Representative results are shown in Table 12 below reported as mean fluorescence intensity (MFI).

[3] = molecular target: T1, human beta klotho expressed on cells; assay: FACS competition on HuKLB-overexpressing cells; row antibody unlabelled; competitor 5H23-Alexa647 (labelled, EC10); MFI of the label
Experimental: as §1, §2

[4] = molecular target: T2, human beta klotho / human FGFR1c …; assay: cell-based or functional assay; remark: listed apart in the source
[5] = molecular target: cynomolgus beta klotho / human FGFR1c receptor complex on cells (cynomolgus monkey (Macaca …)); assay: cell-based or functional assay
cynomolgus beta klotho / human FGFR1c receptor complex on cells (cynomolgus monkey (Macaca …)), sequence (chain, as listed by the source limits assumed, chain 1 of 2): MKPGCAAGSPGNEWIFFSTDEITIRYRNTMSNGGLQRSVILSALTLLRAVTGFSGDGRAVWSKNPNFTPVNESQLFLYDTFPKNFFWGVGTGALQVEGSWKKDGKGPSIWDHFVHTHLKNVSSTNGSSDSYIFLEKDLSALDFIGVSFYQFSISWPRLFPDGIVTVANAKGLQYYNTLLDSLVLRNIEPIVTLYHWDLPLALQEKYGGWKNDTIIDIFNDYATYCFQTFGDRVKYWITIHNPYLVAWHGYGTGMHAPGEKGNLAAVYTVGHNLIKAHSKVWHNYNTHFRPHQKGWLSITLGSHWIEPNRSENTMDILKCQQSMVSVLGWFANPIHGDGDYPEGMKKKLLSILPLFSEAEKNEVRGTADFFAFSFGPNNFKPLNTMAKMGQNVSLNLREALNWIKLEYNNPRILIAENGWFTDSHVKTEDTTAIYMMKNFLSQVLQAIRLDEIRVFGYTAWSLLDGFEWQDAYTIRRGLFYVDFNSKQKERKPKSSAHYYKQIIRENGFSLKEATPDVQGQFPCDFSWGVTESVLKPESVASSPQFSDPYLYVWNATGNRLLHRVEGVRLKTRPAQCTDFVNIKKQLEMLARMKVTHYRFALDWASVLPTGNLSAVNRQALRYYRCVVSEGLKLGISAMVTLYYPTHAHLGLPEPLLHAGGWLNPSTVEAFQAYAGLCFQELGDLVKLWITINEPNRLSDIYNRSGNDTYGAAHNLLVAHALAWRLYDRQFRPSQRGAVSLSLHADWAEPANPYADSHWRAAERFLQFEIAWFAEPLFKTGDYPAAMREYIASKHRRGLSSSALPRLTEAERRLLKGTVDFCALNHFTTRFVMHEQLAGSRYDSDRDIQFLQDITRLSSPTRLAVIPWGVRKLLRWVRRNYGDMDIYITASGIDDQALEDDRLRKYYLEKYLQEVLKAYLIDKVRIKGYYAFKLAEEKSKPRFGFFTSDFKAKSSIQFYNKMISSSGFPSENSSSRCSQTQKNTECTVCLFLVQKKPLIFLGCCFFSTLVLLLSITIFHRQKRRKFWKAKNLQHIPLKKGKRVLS
cynomolgus beta klotho / human FGFR1c receptor complex on cells (cynomolgus monkey (Macaca …)), sequence (chain, as listed by the source limits assumed, chain 2 of 2): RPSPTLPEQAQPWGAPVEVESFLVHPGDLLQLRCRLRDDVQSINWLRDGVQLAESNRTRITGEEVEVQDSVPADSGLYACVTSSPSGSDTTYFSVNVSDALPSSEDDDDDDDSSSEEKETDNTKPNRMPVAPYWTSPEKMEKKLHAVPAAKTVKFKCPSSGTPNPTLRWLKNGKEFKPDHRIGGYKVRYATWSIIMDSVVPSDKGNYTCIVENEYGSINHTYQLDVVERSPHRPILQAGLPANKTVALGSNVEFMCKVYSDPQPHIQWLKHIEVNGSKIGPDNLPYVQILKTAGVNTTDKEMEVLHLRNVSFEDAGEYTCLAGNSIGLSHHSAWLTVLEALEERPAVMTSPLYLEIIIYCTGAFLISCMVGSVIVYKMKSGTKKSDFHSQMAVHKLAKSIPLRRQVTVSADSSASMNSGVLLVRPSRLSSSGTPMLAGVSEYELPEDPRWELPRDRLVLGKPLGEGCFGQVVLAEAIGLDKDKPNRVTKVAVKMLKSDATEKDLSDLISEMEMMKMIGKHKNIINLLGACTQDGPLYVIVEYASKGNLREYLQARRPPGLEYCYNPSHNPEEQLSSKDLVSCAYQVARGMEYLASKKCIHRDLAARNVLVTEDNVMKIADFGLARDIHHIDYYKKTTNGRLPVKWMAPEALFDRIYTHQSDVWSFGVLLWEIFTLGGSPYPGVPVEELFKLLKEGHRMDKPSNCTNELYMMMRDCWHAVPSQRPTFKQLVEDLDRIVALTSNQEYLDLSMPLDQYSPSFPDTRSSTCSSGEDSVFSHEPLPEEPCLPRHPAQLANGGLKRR

[6] = molecular target: T2, human beta klotho / human FGFR1c …; assay: cell-based or functional assay; remark: listed apart in the source
Target sequence in this assay (P11362 22-822 limits assumed, one chain of several): as the sequence (chain, as listed by the source limits assumed, chain 2 of 2) above

[7] = molecular target: human beta klotho / human FGFR3c on L6 cells (human, UniProt Q86Z14 1-1044; P22607 23-806); assay: cell-based or functional assay
human beta klotho / human FGFR3c on L6 cells, sequence (P22607 23-806, one chain of several): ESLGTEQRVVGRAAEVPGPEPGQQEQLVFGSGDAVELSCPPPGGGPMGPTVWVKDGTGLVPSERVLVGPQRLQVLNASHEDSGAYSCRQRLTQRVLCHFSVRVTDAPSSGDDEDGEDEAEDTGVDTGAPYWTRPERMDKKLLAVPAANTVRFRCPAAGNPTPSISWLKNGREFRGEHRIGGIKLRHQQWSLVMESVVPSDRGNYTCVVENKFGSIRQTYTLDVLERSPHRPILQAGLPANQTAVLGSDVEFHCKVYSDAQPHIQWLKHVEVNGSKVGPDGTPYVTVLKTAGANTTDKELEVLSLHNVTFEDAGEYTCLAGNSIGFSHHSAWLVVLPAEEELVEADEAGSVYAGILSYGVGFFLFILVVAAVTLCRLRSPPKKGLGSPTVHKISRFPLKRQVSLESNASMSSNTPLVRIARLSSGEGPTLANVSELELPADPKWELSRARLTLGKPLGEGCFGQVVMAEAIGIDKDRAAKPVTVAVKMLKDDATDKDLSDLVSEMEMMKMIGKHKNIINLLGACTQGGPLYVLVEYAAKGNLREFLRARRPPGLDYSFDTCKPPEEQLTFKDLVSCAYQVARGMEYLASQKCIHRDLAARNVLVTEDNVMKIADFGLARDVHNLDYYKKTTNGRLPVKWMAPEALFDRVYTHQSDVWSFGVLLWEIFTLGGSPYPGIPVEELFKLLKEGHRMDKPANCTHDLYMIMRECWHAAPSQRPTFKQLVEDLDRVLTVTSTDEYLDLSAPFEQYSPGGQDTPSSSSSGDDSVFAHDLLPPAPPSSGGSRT

[8] = molecular target: human beta klotho / human FGFR4 on L6 cells (human, UniProt Q86Z14 1-1044; P22455 22-802); assay: cell-based or functional assay
human beta klotho / human FGFR4 on L6 cells, sequence (P22455 22-802, one chain of several): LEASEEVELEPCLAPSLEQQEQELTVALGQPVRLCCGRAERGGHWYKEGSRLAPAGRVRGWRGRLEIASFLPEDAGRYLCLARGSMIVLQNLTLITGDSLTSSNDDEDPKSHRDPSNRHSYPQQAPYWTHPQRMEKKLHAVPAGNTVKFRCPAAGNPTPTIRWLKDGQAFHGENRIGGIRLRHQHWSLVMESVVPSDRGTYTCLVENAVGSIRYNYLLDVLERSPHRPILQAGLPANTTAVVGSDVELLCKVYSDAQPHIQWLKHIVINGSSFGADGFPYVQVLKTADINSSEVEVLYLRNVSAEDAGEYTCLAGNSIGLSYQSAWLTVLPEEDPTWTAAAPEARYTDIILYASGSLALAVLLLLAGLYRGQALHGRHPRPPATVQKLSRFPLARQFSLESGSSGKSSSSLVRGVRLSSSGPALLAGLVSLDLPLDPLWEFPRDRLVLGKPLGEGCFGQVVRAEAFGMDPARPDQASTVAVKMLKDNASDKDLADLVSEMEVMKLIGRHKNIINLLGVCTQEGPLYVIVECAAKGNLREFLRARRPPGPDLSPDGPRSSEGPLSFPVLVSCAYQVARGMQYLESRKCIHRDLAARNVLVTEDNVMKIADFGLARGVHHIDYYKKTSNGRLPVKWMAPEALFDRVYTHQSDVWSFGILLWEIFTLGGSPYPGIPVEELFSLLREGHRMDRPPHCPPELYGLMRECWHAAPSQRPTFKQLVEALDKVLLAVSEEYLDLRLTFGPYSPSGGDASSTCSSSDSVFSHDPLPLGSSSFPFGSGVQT

| hAdip pERK assay EC50, Experiment - B [1] | Mean Florescence Intensity (MFI) [2] | Mean Florescence Intensity (MFI) [3] | HEK293 huKLB/R1c reporter assay EC50, Experiment - A [4] | HEK293 cynoKLB/R1c reporter assay EC50, Experiment - B [5] | HEK293 cynoKLB/R1c reporter assay EC50, Experiment - A [5] | L6 huKLB/R1c reporter assay EC50 [6] | L6 huKLB/R3c reporter assay EC50 [7] | L6 huKLB/R4 reporter assay EC50 [8] | HEK293 huKLB/R1c reporter assay EC50, Experiment - B [4] | Binder |
| --- | --- | --- | --- | --- | --- | --- | --- | --- | --- | --- |
| > 67 nM | 28.5 MFI | 2.3 MFI | – | – | – | – | – | – | – | B1 |
| > 67 nM | 30.6 MFI | 2.5 MFI | 620 pM | 954 pM | – | – | – | – | – | B2 |
| 1.23 nM | 30.9 MFI | 3.1 MFI | 373 pM | 410 pM | 260 pM | 4650 pM | > 67000 pM | > 67000 pM | – | B3 |
| ~30 nM | 28.7 MFI | 4.2 MFI | 773 pM | 1670 pM | 3580 pM | – | – | – | – | B4 |
| 0.89 nM | 30.1 MFI | 2.4 MFI | 600 pM | 465 pM | 347 pM | 390 pM | > 67000 pM | > 67000 pM | 78.3 pM | B5 |
| > 67 nM | 29.3 MFI | 2.4 MFI | – | – | – | – | – | – | – | B6 |
| > 67 nM | 26.7 MFI | 2.4 MFI | – | – | – | – | – | – | – | B7 |
| 1.66 nM | 29.8 MFI | 2.3 MFI | 102 pM | 218 pM | 165 pM | 280 pM | > 67000 pM | > 67000 pM | 34.2 pM | B8 |
| > 67 nM | 30.5 MFI | 2.4 MFI | 527 pM | > 10000 pM | 2460 pM | – | – | – | – | B9 |
